The labels stand for the following.
B1: AGE-2 aptamer 9 (ssDNA)
DNA: TAACTCACTCCATACTCACTTGCTGATTCGCCAACAACACACCCTTAAACAGTCCC
B2: AGE-2 aptamer 4 (ssDNA)
DNA: CCAGCCTCGATACCATACCCACCAACCCAACCAGACTCCACACACCCACGCGTCTC
B3: AGE-2 aptamer 3 (ssDNA)
DNA: CGCCCCCACACCACCGCCACGACCCCACAATCCCCCGAGGTCCCCCGCGTCCACAC
B4: AGE-2 aptamer 15 (ssDNA)
DNA: TACAGCCCCCCAACCCACCACCGCCGTAGATAACCACCCACCAACGATATCCCACT
B5: AGE-2 aptamer 11 (ssDNA)
DNA: CCCAAGCACAATAGCCACACCCACGACCCACCCTCATATTCCGACCACGCTCCC
B6: AGE-2 aptamer 14 (ssDNA)
DNA: CTGAATACCAACGTACCCCCTCCCAAGTCCCCCTACCCACGCTAAACTCAACCTCA
B7: AGE-2 aptamer 6 (ssDNA)
DNA: CCCGCCATTCCCCTACATAACACCTACCCATCTCCCTTCCCAGTTAATCACCGC
B8: AGE-2 aptamer 8 (ssDNA)
DNA: AACTAGCCCGAGCCACAATCCCATAACAAGCGTGACCACACTATCCTGTCTTCCC
B9: AGE-2 aptamer 7 (ssDNA)
DNA: CCACACTGCACTAAACCAGCGTCCCGGACCATCACAACCTCTGCCCACTAGCCCCT
B10: AGE-2 aptamer 13 (ssDNA)
DNA: CCTCAACACACCTCTAACCAACCCTCAGCCCAGCACAACACCCCCCAAACCGACAC
B11: AGE-2 aptamer 10 (ssDNA)
DNA: ATAACCCCGACGTACACGCCAACTATGCCCACAACCCGCCATAACCCACCACCTTC
B12: AGE-2 aptamer 5 (ssDNA)
DNA: CAAGCGCTCCATCCACCGACATACCTACCAAACACTCTCCTTGCCCATAAAACCAC
B13: AGE-2 aptamer 2 (ssDNA)
DNA: ACCACTGCACGACCCCCACCAGTCCCACTCGCAGCGTCCATGGCCCCCACGCCCCA

Sequence of AGE-2 (glyceraldehyde-derived advanced glycation end product of human serum albumin) (P02768 25-609, stated change not applied, one chain of several): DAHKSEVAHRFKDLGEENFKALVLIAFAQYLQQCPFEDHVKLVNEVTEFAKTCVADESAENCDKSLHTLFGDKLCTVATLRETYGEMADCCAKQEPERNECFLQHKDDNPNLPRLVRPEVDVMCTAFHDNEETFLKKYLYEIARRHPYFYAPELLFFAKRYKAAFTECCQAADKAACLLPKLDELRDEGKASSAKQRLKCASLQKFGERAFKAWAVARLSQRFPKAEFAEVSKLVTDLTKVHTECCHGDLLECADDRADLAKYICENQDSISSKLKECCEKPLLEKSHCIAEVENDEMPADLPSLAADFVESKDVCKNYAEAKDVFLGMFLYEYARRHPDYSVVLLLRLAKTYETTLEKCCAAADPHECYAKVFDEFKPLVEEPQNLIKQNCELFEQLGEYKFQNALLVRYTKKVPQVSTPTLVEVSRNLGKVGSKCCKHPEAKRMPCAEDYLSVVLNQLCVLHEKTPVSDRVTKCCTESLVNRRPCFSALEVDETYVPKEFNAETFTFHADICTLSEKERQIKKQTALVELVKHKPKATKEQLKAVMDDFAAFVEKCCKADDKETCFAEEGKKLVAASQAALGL

This data set has as its target AGE-2 (glyceraldehyde-derived advanced glycation end product of human serum albumin) (Homo sapiens, UniProt P02768 P02768:25-609, HSA glycated with D-glyceraldehyde at 37 C for 7 days, dialysed against PBS). Briefly: AGE-2 fluorescence attenuation, 100 ug/mL AGE-2, 25 nM aptamer. To be noted: tags: HSA from Sigma; immobilised on SulfoLink beads for SELEX. The method, then:
First, for measuring fluorescence properties of AGE-2, wavelengths of AGE-2 were determined for excitation and […] using a spectrofluorometer (FP-777: JASCO Corporation). […] Subsequently, the fluorescence intensity was measured with 25 to 100 μg/mL of AGE-2 at the excitation wavelength of 380 nm, and a calibration curve was prepared (FIG. 3A).
Then, to each aptamer (SEQ ID NOs: 1 to 15), 100 μg/mL of the AGE-2 was added at a final concentration of 25 to 100 nM, and the fluorescence intensity was measured (see FIGS. 3B and C). Based on attenuation in the fluorescence intensity of AGE-2 when the aptamer was added at 25 nM, the weight (ng) of the bound AGE-2 was calculated per mole (nmol) of the aptamer.
Turning to B1, the binding signal was 117 ng AGE-2 bound per nmol aptamer.
Consider B2, for which the binding signal is 210 ng AGE-2 bound per nmol aptamer.
As to B3, the binding signal is 260 ng AGE-2 bound per nmol aptamer.
Take B4: the binding signal was 271 ng AGE-2 bound per nmol aptamer.
For B5, the binding signal is 137 ng AGE-2 bound per nmol aptamer.
With B6 the figure was 158 ng AGE-2 bound per nmol aptamer; with B7, 202 ng AGE-2 bound per nmol aptamer.
Regarding B8, the binding signal was 175 ng AGE-2 bound per nmol aptamer.
For the molecule B9, the binding signal was 146 ng AGE-2 bound per nmol aptamer.
B10: the binding signal was 175 ng AGE-2 bound per nmol aptamer.
With B11, the binding signal was 134 ng AGE-2 bound per nmol aptamer.
To B12 belongs 143 ng AGE-2 bound per nmol aptamer; to B13, 175 ng AGE-2 bound per nmol aptamer.
